This test has as its target T1, recombinant Set7/9-KMT7 (UniProt Q8WTS6 1-366).
T1 sequence (looked up): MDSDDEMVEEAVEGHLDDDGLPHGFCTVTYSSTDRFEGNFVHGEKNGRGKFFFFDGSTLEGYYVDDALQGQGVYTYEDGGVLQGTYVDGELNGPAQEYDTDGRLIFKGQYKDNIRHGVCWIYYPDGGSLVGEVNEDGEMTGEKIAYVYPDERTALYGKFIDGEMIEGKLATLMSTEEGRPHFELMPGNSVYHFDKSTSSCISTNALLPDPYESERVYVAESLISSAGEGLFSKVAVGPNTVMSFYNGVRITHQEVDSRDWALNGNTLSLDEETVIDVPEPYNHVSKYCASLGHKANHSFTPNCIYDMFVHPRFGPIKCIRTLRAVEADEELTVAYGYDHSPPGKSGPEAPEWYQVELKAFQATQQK
The test is described as follows: in vitro binding reaction.

B1: full-length synthetic Tat protein (aa 1-72) (natural protein)
chain: MEPVDPRLEPWKHPGSQPKTACTNCYCKKCCFHCQVCFITKALGISYGRKKRRQRRRAHQNSQTHQASLSKQ
For B1, the binding result is given as “binds”.

The values above are taken from publication PMC2844784 (Cell host & microbe, 2010).
